Measurements as given in US20240018237A1 (SICHUAN KELUN BIOTECH BIOPHARMACEUTICAL, published 2024).

Tests used:
[1] = target: human ROR1 (full-length, on the cell surface) (human) (UniProt Q01973); experiment: cell-based or functional assay
[2] = target: human ROR1 (full-length, on the cell surface) (human) (UniProt Q01973); experiment: flow cytometry, A549 cells (Table 5-2)
[3] = target: human ROR1 (full-length, on the cell surface) (human) (UniProt Q01973); experiment: flow cytometry, A549 cells (Table 5-3)
[4] = target: human ROR1 (full-length, on the cell surface) (human) (UniProt Q01973); experiment: flow cytometry, A549 cells (Table 5-1A)
[5] = target: human ROR1 (full-length, on the cell surface) (human) (UniProt Q01973); experiment: flow cytometry, A549 cells (Table 5-1B)
[6] = target: human ROR1 (full-length, on the cell surface) (human) (UniProt Q01973); experiment: flow cytometry, HT-29 cells (Table 5-2)
[7] = target: human ROR1 (full-length, on the cell surface) (human) (UniProt Q01973); experiment: flow cytometry, HT-29 cells (Table 5-3)
[8] = target: human ROR1 (full-length, on the cell surface) (human) (UniProt Q01973); experiment: flow cytometry, HT-29 cells (Table 5-1A)
[9] = target: human ROR1 (full-length, on the cell surface) (human) (UniProt Q01973); experiment: flow cytometry, HT-29 cells (Table 5-1B)
[10] = target: human ROR1 (full-length, on the cell surface) (human) (UniProt Q01973); experiment: flow cytometry, Jeko-1 cells (Table 5-2)
[11] = target: human ROR1 (full-length, on the cell surface) (human) (UniProt Q01973); experiment: flow cytometry, Jeko-1 cells (Table 5-3)
[12] = target: human ROR1 (full-length, on the cell surface) (human) (UniProt Q01973); experiment: flow cytometry, Jeko-1 cells (Table 5-1A)
[13] = target: human ROR1 (full-length, on the cell surface) (human) (UniProt Q01973); experiment: flow cytometry, Jeko-1 cells (Table 5-1B)
[14] = target: human ROR1 (full-length, on the cell surface) (human) (UniProt Q01973); experiment: flow cytometry, Ba/F3-ROR1 cells (Table 5-2)
[15] = target: human ROR1 (full-length, on the cell surface) (human) (UniProt Q01973); experiment: flow cytometry, Ba/F3-ROR1 cells (Table 5-3)
[16] = target: human ROR1 (full-length, on the cell surface) (human) (UniProt Q01973); experiment: flow cytometry, Ba/F3-ROR1 cells (Table 5-1A)
[17] = target: human ROR1 (full-length, on the cell surface) (human) (UniProt Q01973); experiment: flow cytometry, Ba/F3-ROR1 cells (Table 5-1B)
[18] = target: human ROR1 (full-length, on the cell surface) (human) (UniProt Q01973); experiment: flow cytometry, A549 cells; average of two measurements
[19] = target: human ROR1 (full-length, on the cell surface) (human) (UniProt Q01973); experiment: flow cytometry, HT-29 cells; average of two measurements
[20] = target: human ROR1 (full-length, on the cell surface) (human) (UniProt Q01973); experiment: flow cytometry, Jeko-1 cells; average of two measurements
[21] = target: human ROR1 (full-length, on the cell surface) (human) (UniProt Q01973); experiment: flow cytometry, Ba/F3-ROR1 cells; average of two measurements
[22] = target: human ROR1 (full-length, on the cell surface) (human) (UniProt Q01973); experiment: flow cytometry on A549 cells, MFI against antibody concentration
[23] = target: human ROR1 (full-length, on the cell surface) (human) (UniProt Q01973); experiment: flow cytometry on Ba/F3-ROR1 cells, MFI against antibody concentration
[24] = target: human ROR1 (full-length, on the cell surface) (human) (UniProt Q01973); experiment: as above; remark: listed apart in the source
[25] = target: human ROR1 ECD protein (human) (UniProt Q01973); experiment: BLI (Octet), antibody on AHC sensor, ROR1 ECD in solution; average of two measurements
human ROR1 ECD protein (human), sequence (Q01973 30-406): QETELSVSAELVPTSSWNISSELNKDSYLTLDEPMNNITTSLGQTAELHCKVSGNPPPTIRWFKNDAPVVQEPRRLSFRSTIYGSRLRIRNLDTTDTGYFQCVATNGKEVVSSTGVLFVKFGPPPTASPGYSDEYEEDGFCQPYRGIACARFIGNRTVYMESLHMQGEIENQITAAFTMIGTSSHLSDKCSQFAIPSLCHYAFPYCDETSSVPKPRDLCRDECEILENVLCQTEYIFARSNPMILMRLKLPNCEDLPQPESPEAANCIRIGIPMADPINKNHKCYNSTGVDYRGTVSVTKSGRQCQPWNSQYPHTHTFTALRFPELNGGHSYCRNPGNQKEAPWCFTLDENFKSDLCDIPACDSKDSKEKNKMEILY

[26] = target: human ROR1 ECD protein (human) (UniProt Q01973); experiment: BLI (Octet), antibody on AHC sensor, ROR1 ECD in solution; average of three determinations

human ROR1 (full-length, on the cell surface) (human), sequence (Q01973 30-937): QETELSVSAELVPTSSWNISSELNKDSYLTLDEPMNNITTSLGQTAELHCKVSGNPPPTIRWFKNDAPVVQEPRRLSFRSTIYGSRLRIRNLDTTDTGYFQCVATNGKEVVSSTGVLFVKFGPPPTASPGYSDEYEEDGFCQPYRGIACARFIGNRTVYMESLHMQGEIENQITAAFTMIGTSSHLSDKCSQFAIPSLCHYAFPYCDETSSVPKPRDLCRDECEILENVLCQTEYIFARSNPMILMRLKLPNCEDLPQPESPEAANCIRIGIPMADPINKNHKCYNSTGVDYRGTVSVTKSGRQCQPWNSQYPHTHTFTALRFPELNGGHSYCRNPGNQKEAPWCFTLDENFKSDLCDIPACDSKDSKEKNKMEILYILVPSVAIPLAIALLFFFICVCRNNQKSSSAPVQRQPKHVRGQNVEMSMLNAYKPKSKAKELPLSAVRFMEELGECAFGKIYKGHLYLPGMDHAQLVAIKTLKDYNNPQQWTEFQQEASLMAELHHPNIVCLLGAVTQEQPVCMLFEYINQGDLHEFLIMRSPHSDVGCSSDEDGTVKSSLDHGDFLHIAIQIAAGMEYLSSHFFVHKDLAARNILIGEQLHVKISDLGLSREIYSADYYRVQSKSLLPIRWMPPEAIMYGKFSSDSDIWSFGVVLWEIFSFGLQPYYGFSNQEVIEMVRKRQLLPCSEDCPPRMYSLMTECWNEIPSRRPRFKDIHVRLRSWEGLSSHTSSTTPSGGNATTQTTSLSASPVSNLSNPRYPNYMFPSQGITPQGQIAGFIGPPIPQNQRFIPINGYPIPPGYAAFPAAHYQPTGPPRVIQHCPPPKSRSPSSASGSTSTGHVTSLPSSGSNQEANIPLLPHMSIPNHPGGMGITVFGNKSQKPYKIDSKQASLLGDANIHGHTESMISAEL

B1: anti-human ROR1 antibody UC961 (antibody, from another filing, V domains shown)
VH: QVQLQESGPGLVKPSQTLSLTCTVSGYAFTAYNIHWVRQAPGQGLEWMGSFDPYDGGSSYNQKFKDRLTISKDTSKNQVVLTMTNMDPVDTATYYCARGWYYFDYWGHGTLVTVSS
VL: DIVMTQTPLSLPVTPGEPASISCRASKSISKYLAWYQQKPGQAPRLLIYSGSTLQSGIPPRFSGSGYGTDFTLTINNIESEDAAYYFCQQHDESPYTFGEGTKVEIK
- EC50 of ADCC killing of Ba/F3-ROR1 cells by NK92MI-mCD16a-hFceRI cells [1]: 0.33 nM
- EC50 [2]: 0.46 nM
- EC50 [3]: 0.21 nM
- EC50 [4]: 0.41 nM
- EC50 [5]: 0.16 nM
- EC50 [6]: 0.21 nM
- EC50 [7]: 0.37 nM
- EC50 [8]: 0.12 nM
- EC50 [9]: 0.2 nM
- EC50 [10]: 0.14 nM
- EC50 [11]: 0.06 nM
- EC50 [12]: 0.22 nM
- EC50 [13]: 0.36 nM
- EC50 [14]: 0.31 nM
- EC50 [15]: 1.07 nM
- EC50 [16]: 0.62 nM
- EC50 [17]: 0.3 nM
- EC50 [18]: 0.277 nM
- EC50 [19]: 0.267 nM
- EC50 [20]: 0.447 nM
- EC50 [21]: 0.44 nM
- EC50 (read off the curve) [22]: 0.01 µg/mL
- EC50 (read off the curve) [23]: 0.05 µg/mL
- EC50 (read off the curve) [24]: 0.07 µg/mL
- Kd [25]: 15.8 nM
- koff [25]: 0.0137 s⁻¹
- kon [25]: 981000 M⁻¹ s⁻¹
- Kd [26]: 8.73 nM
- koff [26]: 0.0112 s⁻¹
- kon [26]: 1.26e+06 M⁻¹ s⁻¹
